Data as given in patent publication US20110236380A1 (published 2011).

What was measured:
[1] = target: T1, human IL-13 (human, UniProt P35225 35-146, limits assumed); test: cell-based or functional assay
[2] = target: rhesus IL-13 (rhesus, UniProt Q864V6 19-132, limits assumed); test: cell-based or functional assay
[3] = target: T2, Cynomolgus monkey IL-13 (cynomolgus monkey, UniProt Q0PW92 21-132); test: cell-based or functional assay
[4] = target: T1, human IL-13; test: Biacore SPR, biotinylated IL-13 on streptavidin chip, dAb as analyte, 1:1 model, 25 C
Protocol: (§1) The binding affinities of purified DOM10 dAbs to both human and cyno IL-13 were assessed by Biacore analysis. Analysis was carried out using biotinylated IL-13. About 150 RU of biotinylated IL-13 was coated to a streptavidin (SA) chip (Biacore, GE healthcare). The surface was regenerated back to baseline using 0.1 M Glycine pH 2. dAbs were passed over this surface at defined concentrations using a flow rate of 50 μl/min. Data were analyzed using BIAevaluation software (Biacore, GE Healthcare) and fitted to the 1:1 model of binding. The binding data fitted well to the 1:1 model for all DOM10 dAbs. Biacore runs were carried out at 25° C.

[5] = target: T2, Cynomolgus monkey IL-13; test: as above
Protocol: as §1

[6] = target: T1, human IL-13; test: DOM10 sandwich ELISA: dAb dilution series mixed with 150 pg/ml human IL-13, loss of IL-13 detection by the kit antibodies
Protocol: dAbs were also tested in DOM10 ELISA to assess the potency against human IL-13 and cell based HEK Blue-STAT6 (HEK STAT) assays to assess the potency against human, cyno and Rhesus IL-13. DOM10 ELISA measures the ability of DOM10 dAbs to bind IL-13 and prevent its binding to an IL-13 detection antibody. A MAXISORP™ plate (high protein binding ELISA plate, Nunc, Denmark) is coated overnight with 2.5 μg/ml coating antibody (Module Set, Bender MedSystems, Vienna, Austria), then washed once with 0.1% (v/v) Tween 20 in PBS before blocking with 0.5% (w/v) BSA 0.05% (v/v) Tween 20 in PBS for 2 hours at room temperature. The plate is washed twice as previously detailed before the addition of 150 pg/ml IL-13 (GSK) mixed with a dilution series of DOM10 dAb (i.e., an anti-IL-13 dAb) and incubated for 1 hour. The plate is washed twice before binding of IL-13 to the capture antibody is detected using biotin conjugated detection antibody (Module Set, Bender Medsystems), followed by peroxidase labelled Streptavidin (Module Set, Bender MedSystems). Finally the plate is washed three times before incubation with TMB substrate (KPL, Gaithersburg, USA), and the reaction stopped by the addition of HCl and the absorbance read at 450 nm. Anti-IL-13 dAb activity causes a decrease in IL-13 binding and therefore a decrease in absorbance compared with the IL-13 only control.

Chain of rhesus IL-13 (Q864V6 19-132 limits assumed): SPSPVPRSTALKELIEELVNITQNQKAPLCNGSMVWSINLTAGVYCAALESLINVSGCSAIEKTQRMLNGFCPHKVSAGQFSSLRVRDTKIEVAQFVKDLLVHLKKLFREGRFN
T1 sequence (P35225 35-146 limits assumed): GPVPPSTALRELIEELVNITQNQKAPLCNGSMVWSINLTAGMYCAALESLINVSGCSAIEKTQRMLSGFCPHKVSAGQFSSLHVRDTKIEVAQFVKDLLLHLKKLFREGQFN
T2 sequence (Q0PW92 entry or part of it): as the sequence (P35225 35-146 limits assumed) above, with G1S, R10K, M42V, S67N, H83R, L100V counted along it

| Binder | HEK assay Human EC50 [1] | HEK assay Rhesus EC50 [2] | HEK assay Cyno EC50 [3] | Kd [4] | Kd [5] | EC50 [6] |
| --- | --- | --- | --- | --- | --- | --- |
| DOM10-53-567 (other) VH: GVQLLESGGGLVQPGGSLRLSCAASGFVFAWYDMGWVRQAPGKGLEWVSSIDWHGEVTYYADSVKGRFTISRDNSKNTLYLQMNSLRAEDTAVYYCATAEDEPGYDYWGQGTLVTVSS | 0.31 nM | 2.8 nM | 5.1 nM | 0.072 nM | 2.6 nM | 0.021 nM |
| DOM10-53-616 (other) VH: GVQLLESGGGLVQPGGSLRLSCAASGFVFPWYDMGWVRQAPGKGLEWVSSIDWHGKITYYADSVKGRFTISRDNSKNTLYLQMNSLRAEDTAVYYCATAEDEPGYDYWGQGTLVTVSS | 2.9 nM | 7.6 nM | 5.9 nM | 0.13 nM | 3.2 nM | 0.048 nM |
| DOM10-53-474 (other, Anti-IL-13 immunoglobulin single variable domain (dAb), monomer) VH: GVQLLESGGGLVQPGGSLRLSCAASGFTFAWYDMGWVRQAPGKGLEWVSSIDWHGEVTYYADSVKGRFTISRDNSKNTLYLQMNSLRAEDTAVYYCATAEDEPGYDYWGQGTLVTVSS | 2 nM | 30.2 nM | 30.1 nM | 0.259 nM | 9.3 nM | 0.217 nM |
| DOM10-53-546 (other) VH: GVQLLESGGGLVQPGGSLRLSCAASGFVFPWYDMGWVRQAPGKGLEWVSSIDWKGGKTYYADSVKGRFTISRDNSKNTLYLQMNSLRAEDTAVYYCATAEDEPGYDYWGQGTLVTVSS | 1 nM | 11.4 nM | 5.9 nM | 0.094 nM | 2.1 nM | 0.125 nM |
| DOM10-53-568 (other) VH: GVQLLESGGGLVQPGGSLRLSCAASGFVFAWYDMGWVRQAPGKGLEWVSSIDWHGKITYYADSVKGRFTISRDNSKNTLYLQMNSLRAEDTAVYYCATAEDEPGYDYWGQGTLVTVSS | 0.62 nM | 8.1 nM | 8.8 nM | 0.07 nM | 1.6 nM | – |
